The values that follow come from article PMC8646660 (EMBO Molecular Medicine, 2021).

In the test the target is SARS-CoV-2 S receptor-binding domain (RBD), biotinylated (SARS-CoV-2, UniProt P0DTC2, biotin on the Avi tag (enzymatic, BirA)). As to the kind of experiment: cell-based or functional assay.

B1: FD20 (IgG format) (antibody, V domains shown)
VH: QVQLQQSGAEVKKPGSSVKVSCKASGGTFSSYAFSWVRQAPGQGLEWMGRIIPILGIANYAQKFQGRVTITADISTSTAYMALSSLRSEDTAVYYCAKVEVNIGMDDYYYYYGMDVWGQGTTVTVSS
VL: not shown
Regarding B1, the “neutralisation of SARS-CoV-2 pp harbouring wild-type S, IC50 (fold in brackets)” value amounted to 0.012 µM.
